Here are results for 20 molecules from paper PMC10311653 (ACS Central Science, 2023).

As a reminder, the EC50 is the midpoint of the concentration-response curve.

B1: Q15CK-A8 (antibody, V domains shown)
VH: EVKLQESGAELVKPGASVKLSCTASGFNIEDTYIHWVKQRPEQGLEWIGRIDPANGNTKYDPKFQGKATITEDTSSNTAYLQLSSLTSEDTAVYYCAIHYYGSFAYWGQGTLVTVSA
VL: DIQITQSRKFMSTSVGDRVSVTCKASQNVGTNVAWYQQKPGQSPKALIYSASYRYSGVPDRFTGSGSGTDFTLTISNVQSEDLAEYFCQQYNSYPYTFGGGTKLELK
B2: Q15CK-H5 (antibody, V domains shown)
VH: B1 VH with K3Q, E6Q, K19R, E30K, I34M, K38R, F64S, I70L, E72A, Q82H
VL: B1 VL with Q3V, I4M, R8Q, Y96L, G100A
B3: Q15CK-B10 (antibody, V domains shown)
VH: B1 VH with K3Q, E6Q, A9T, E30K, I34M, G56D, E72T, A105P
VL: DIVMTQSQKFMSTSVGDRVSITCKASQNVGTAVAWYQQKPGQSPKLLIYSASNRYTGVPDRFTGSGSGTDFTLTISNMQSEDLADYFCQQYSSYPYTFGGGTKLELK
B4: Q15CK-D4 (antibody, V domains shown)
VH: EVQLVESGGGLVQPGGSRKLSCAASGFTFSTFGMHWVRQAPEKGLEWVAYISSGSYTIYYADTVKGRFTISRDNPKNTLFLQMTSLRSEDTAMYYCARDDYDVNYYAMDYWGQGTSVTVSS
VL: DIVLSQSPAIMSASPGEKVTMTCSASSSVSYMHWYQQKSSTSPKLWIYDTSKLASGVPGRFSGSGSGNSYSLTISSMEAEDVATYYCFQGSGYPYTFGGGTKLEIK
B5: Q15CK-B1 (antibody, V domains shown)
VH: EVQLQQSGPQLVRPGASVKISCKASGYSFTSYWMHWVKQRPGQGLEWIGMIDPSDSETRLNQKFKDKATLTVDKSSSTAYMQLSSPTSEDSAVYYCARWDSWGQGTLVTVSA
VL: DIVMTQSPSSLTVTAGEKVTMSCKSSQSLSKSGNQKNYLTWYQQKPGQPPKLLIYWASTRESGVPDRFTGSGSGTDFTLTISSVQAEDLAVYYCQNDYSYPFTFGSGTKLEIK
B6: Q15CK-D6 (antibody, V domains shown)
VH: B5 VH with S31N, N61D
VL: B5 VL with V3L, M4L, S30L, K31N
B7: Q15Kcr-G8-mFc (Fc fusion, mouse)
VH: B1 VH with K3Q, E6Q, G26D, E30K, N55D, E72A, A105P
VL: B3 VL with S7A, Q8H, K24Q, N28D, S50W, N53T, Y55H, M78V, L106I
notes: as the scFv of m42; source: HEK 293F, transfected, purified (Protein A, Superdex 200 SEC)
B8: CL-E2-mFc (Fc fusion, mouse)
VH: EVQLKESGAELMKPGASVKISCKATGYTFSSYWIEWVKQRPGHGLEWIGEILPGSGSTNYNEKFKGKATFTADISSNTAYMQLSSLTSEDSAVYYCASGGYRPSMDFWGQGTSVTVSS
VL: DIVMTQSQKFMSTSVGDRVSITCKASQNVRTAVAWYQQKPGQSPKALIYLASNRHTGVPDRFTGSGSGTDFTLTITNVQSEDLADYFCLQHWNYPLTFGAGTKLELK
notes: as the scFv of m23; also called CL-E2-mFc fusion antibody; source: HEK 293F, transfected, purified (Protein A, Superdex 200 SEC)
B9: E64Kcr-B9-mFc (Fc fusion, mouse)
VH: EVQLQQSGAELVKPGASVKLSCTASGFNIKDTYMHWVKQRPEQGLEWIGRIDPANGNTKYDPKFQGKATITADTSSNTAYLQLSSLTSEDTAVYYCAIHYYGSLPVWGAGTTVTVSS
VL: B3 VL with D1G, Q8H, N28D, S50W, N53T, Y55H, M78V, Y96L, G100A, K103M
notes: as the scFv of m30; source: HEK 293F, transfected, purified (Protein A, Superdex 200 SEC)
B10: E64Kcr-A4-mFc (Fc fusion, mouse)
VH: EVKLEESGGGLVQPGGSMKLSCVASGFTFSNYWMNWVRQSPEKGLEWVAEIRLKSNNYATPYAESVKGRFTISRDDSKSSVYLQMNNLRAEDTGIYYCTRGGIFLAYWGQGTLVTVSA
VL: DIQLTQPTSSLSASLGDRVTISCRASQDISNYLNWYQQKPDGTVKLLIYYTSRLHSGVPSRFSGSGSGTDYSLTISNLEQEDIATYFCQQGNTLPYTFGGGTKLELK
notes: as the scFv of m29; source: HEK 293F, transfected, purified (Protein A, Superdex 200 SEC)
B11: E64Kcr-G9-mFc (Fc fusion, mouse)
VH: B4 VH with T31S, Y56S, N104R, Y105A
VL: DIQMIQSPASLSASVGETVTITCRASQNIYSYLAWYQQKQGKSPQLLVYNAKTLAEGVPSRFSGSGSGTQFSLKINSLQPEDFGSYYCQHHYGTPLTFGAGTKLELK
notes: as the scFv of m27; source: HEK 293F, transfected, purified (Protein A, Superdex 200 SEC)
B12: E64Kcr-A5-mFc (Fc fusion, mouse)
VH: B4 VH with T31S, A97T, N104R, Y105A
VL: DIVMTQPSSSFSVSLGDRVTITCKASEDIYNRLAWYQQKPGNAPRLLISGATTLETGVPSRFSGSGSGKDYTLTITSLQTEDVATYYCQQYWSTPLTFGAGTKLELK
notes: as the scFv of m25; source: HEK 293F, transfected, purified (Protein A, Superdex 200 SEC)
B13: Q15Kcr-H2 phage (scFv, V domains shown)
VH: B1 VH with K3Q, E6Q, E30K, G56V, E72A, Y106H
VL: B1 VL with Q3L, I4M, R8Q, S50Q
notes: mouse scFv from the Q15Kcr immunization library; source: E. coli XL1-Blue with M13KO7 (ΔpIII) hyperphage, monoclonal phage, PEG 8000/NaCl precipitated
B14: Q15Kcr-D1 phage (scFv, V domains shown)
VH: B1 VH with K3Q, G56D
VL: B1 VL with Q3L, I4M, K45E, E85D, S93T, L106M
notes: as for B13
B15: Q15Kcr-A3 phage (scFv, V domains shown)
VH: B1 VH with K3Q, E6Q, E30K, T71R, E72A
VL: B3 VL with V3L, Q8H, N28D, S50W, N53T, Y55H, M78V, L106I
notes: as for B13
B16: Q15Kcr-C1 phage (scFv, V domains shown)
VH: B1 VH with K3Q, E6Q, E30K, N55D, E72A, A105P
VL: B10 VL with L4M, P7T, T20S, A25T, V44L, Y50F, N92K
notes: as for B13
B17: Q15Kcr-C7 phage (scFv, V domains shown)
VH: B8 VH with L4Q, K5Q, E6Q, A9T, I74T, S75T, F107Y, T112I
VL: B1 VL with D1G, Q3E, I4L, R8Q, M11T, S50Q, Y96L, G100A
notes: as for B13
B18: Q15Kcr-B6 phage (scFv, V domains shown)
VH: B1 VH with K3Q, E30K, G56V, E72A, Y106H, S116P
VL: B3 VL with Q8H, N28D, S50W, N53T, Y55H, M78V, Y96L, G100S, L106I
notes: as for B13
B19: CL-E2 phage (scFv, V domains shown)
VH: B8 VH
VL: B8 VL
notes: mouse scFv from the E64AcrK immunization library; also called phage CL-E2; source: E. coli XL1-Blue with M13KO7 (ΔpIII) hyperphage, monoclonal phage, PEG 8000/NaCl precipitated
B20: Q15Kcr-H11 phage (scFv, V domains shown)
VH: EVQLQQSGAELVKTGASVKLSCTASGFSIKDTYIHWVKQRPEQGLEWIGRIDPDPATINTKYDPHFQDKATITADTSSNTTYLQLSSLTSEDTAVYYCAIHYYGSFPYWGQGTLVTVSA
VL: B10 VL with L4M, P7T, Y50F
notes: as for B13

Residue numbers refer to the chain shown, from its start.

The first test addresses T1, wildtype (WT) human interleukin-1β (Homo sapiens, UniProt P01584).
Test: not given
Details: not given
In the case of B1, the binding result was “binds”. As to B2, the binding result is “binds”. Still for that read-out and setting: under B3 stands “binds”; under B4, “binds”; under B5, “binds”. In the case of B6, the binding result is “binds”.

The target of the next test is hIL-1βQ15Kcr (Homo sapiens, UniProt P01584, point mutant, Nε-crotonyl-L-lysine (Kcr) at 15).
Test: not given
Details: not given
Take B1: the binding result is given as “binds”. Take B2: the binding result is recorded as “binds”. In the case of B3, the binding result is “binds”. For the molecule B4, the binding result was “binds”.

For the molecule B5, the binding result is recorded as “binds”. On to B6, for which the binding result is “binds”.

Another test addresses T2, hIL-1βQ15G (Homo sapiens, UniProt P01584, point mutant).
T2 construct: human interleukin-1β (hIL-1β); source: E. coli BL21 (DE3), purified (Ni-NTA, Superdex 75 SEC)
Kind of test: not stated; binding affinity of Q15Kcr-G8-mFc for hIL-1β, hIL-1βQ15Kcr and hIL-1βQ15G (Figure S13E). The settings on record: both partners purified.
For the molecule B7, the “fold decrease of affinity” value was approximately 10 fold.

A further test has as its target T1, wildtype (WT) human interleukin-1β. Kind of test: ELISA; antigen (100 ng) coated on the plate; scFv-mFc added in 3% skim milk in DPBST, 2 h at 37 °C; EC50. The conditions noted are these: both partners purified. Background: ELISA stands for enzyme-linked immunosorbent assay.
Regarding B8, the binding result was “binds”.

In another test the target is T3, hIL-1β V151A (Homo sapiens, UniProt P01584, point mutant).
T3 construct: human interleukin-1β (hIL-1β); source: E. coli BL21 (DE3), purified (Ni-NTA, Superdex 75 SEC)
The test is described as above. The settings on record: both partners purified.
On to B9, for which the binding result is “binds”. Consider B10, for which the binding result was “binds”. Regarding B11, the binding result is “binds”. Same read-out and setting: under B12 stands “binds”.

A further test deals with T1, wildtype (WT) human interleukin-1β. Described as above. The settings on record: both partners purified. The source holds these as a separate data set.
Take B9: it took 0.04 nM to reach a half-maximal effect (EC50). In turn, B10 displayed an EC50 of 0.121 nM. Take B11: the EC50 turned out to be 0.197 nM. As for B12, a half-maximal response (EC50) required 0.034 nM.

Another test has the same target. Kind of test: ELISA; phage ELISA; antigen (100 ng) coated on the plate; phages added (pfu titration) in 3% skim milk in DPBST, 2 h at 37 °C. The conditions noted are these: one partner purified.
Regarding B13, the binding result is on record as “binds”. With B14, the binding result is “binds”. B15: the binding result was “binds”.

As for B16, the binding result is “binds”.

Take B17: the binding result was “binds”. B18: the binding result is on record as “binds”. Regarding B19, the binding result is listed as “binds”.

In the case of B20, the binding result is given as “binds”.
